Assay results as given in patent US20240034796A1 (GENUV, published 2024).
One block for each binder: values may come before it.

Experiments:
human ICOS protein = biological target: T1, human ICOS protein (human, UniProt Q9Y6W8 21-140); assay: protein-based ELISA, coated human ICOS, hybridoma supernatant
T1 sequence (looked up): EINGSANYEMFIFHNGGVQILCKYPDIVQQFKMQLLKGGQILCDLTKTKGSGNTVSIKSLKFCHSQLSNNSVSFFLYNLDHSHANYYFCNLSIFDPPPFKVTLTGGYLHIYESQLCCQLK
Method: (§1) Human PD-1, CD28, CTLA-4, ICOS, and BTLA proteins were coated in 96-well plates (Nunc) overnight at 4° C. […] After washing, a secondary antibody was added and incubated at 37° C. for 2 hours. […] After washing, TMB substrate (abcam) was added, and the color reaction was stopped with STOP solution (abcam). Absorbance at 450/650 nm was measured using a microplate reader (ThermoFisher).

[1] = biological target: T2, human PD-1 expressed on CHO-S cells (human, UniProt Q15116 25-288); assay: cell-based ELISA on CHO-S cells expressing human PD-1
T2 construct: CHO-S cells transfected with pCMV3-C-FLAG vector (Sino) holding human PD-1 cDNA; also called cell surface human PD-1; hPD-1
Method: (§2) To summarize the ELISA analysis, 10,000 CHO-S cells expressing either human PD-1 or mouse PD-1 were coated in a collagen-coated 96-well plate (Thermo scientific) overnight in an incubator at 37° C. The coated cells were fixed with 8% paraformaldehyde at room temperature for 15 minutes.
(§3) After washing, a secondary antibody was added and incubated overnight at 4° C. […] After washing, TMB substrate (abcam) was added, and the color reaction was stopped with STOP solution (abcam). Absorbance at 450/650 nm was measured using a microplate reader (ThermoFisher).

[2] = biological target: T2, human PD-1 expressed on CHO-S cells; assay: cell-based ELISA on CHO-S cells expressing human PD-1; EC50 against Keytruda and Opdivo
Method: as §2, §3

[3] = biological target: T3, mouse PD-1 expressed on CHO-S cells (mouse, UniProt Q02242 25-288); assay: cell-based ELISA on fixed CHO-S cells expressing mouse PD-1, hybridoma supernatant
T3 construct: whole, on cells; also called cell surface mouse PD-1; mPD-1
T3 sequence (looked up): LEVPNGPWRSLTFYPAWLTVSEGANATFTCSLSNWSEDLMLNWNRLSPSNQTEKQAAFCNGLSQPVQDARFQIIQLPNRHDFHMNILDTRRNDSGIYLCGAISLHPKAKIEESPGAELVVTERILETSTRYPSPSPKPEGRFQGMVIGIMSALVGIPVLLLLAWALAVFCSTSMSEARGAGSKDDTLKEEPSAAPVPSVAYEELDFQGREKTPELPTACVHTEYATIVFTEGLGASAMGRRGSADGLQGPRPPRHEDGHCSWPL
Method: (§4) To summarize the ELISA assay, 10,000 CHO-S cells expressing human or mouse PD-1 were coated in collagen-coated 96-well plates (ThermoFisher) overnight at 37° C. The coated cells were fixed with 8% paraformaldehyde at room temperature for 15 minutes. […] After washing, secondary antibody was added and incubated overnight at 4° C. […] After washing, TMB substrate (abcam) was added, and the color reaction was stopped with STOP solution (abcam). Absorbance at 450/650 nm was measured using a microplate reader (ThermoFisher).

[4] = biological target: T2, human PD-1 expressed on CHO-S cells; assay: cell-based ELISA on fixed CHO-S cells expressing human PD-1, hybridoma supernatant
Method: as §4

human CD28 protein = human CD28 protein (human, UniProt P10747 19-152); assay: protein-based ELISA, coated human CD28, hybridoma supernatant
Method: as §1

[5] = biological target: T3, mouse PD-1 expressed on CHO-S cells; assay: cell-based ELISA on CHO-S cells expressing mouse PD-1
Method: as §2, §3

human CTLA-4 protein = human CTLA-4 protein (human, UniProt P16410 36-161); assay: protein-based ELISA, coated human CTLA-4, hybridoma supernatant
Method: as §1

human BTLA protein = human BTLA protein (human, UniProt Q7Z6A9 31-157, limits assumed); assay: protein-based ELISA, coated human BTLA, hybridoma supernatant
Method: as §1

[6] = biological target: T4, human PD-1 with L128 mutated to alanine (human, UniProt Q15116 25-288, limits assumed); assay: alanine scanning, high-throughput flow cytometry
T4 construct: Alanine scanning mutant, expressed and analysed by high-throughput flow cytometry; the construct is not described further
Text: (§5) Selected amino acid residues of PD-1 were mutated to alanine using PCR mutagenesis.

[7] = biological target: T5, human PD-1 with P130 mutated to alanine (human, UniProt Q15116 25-288, limits assumed); assay: alanine scanning, high-throughput flow cytometry
T5 construct: Alanine scanning mutant, expressed and analysed by high-throughput flow cytometry; the construct is not described further
Text: as §5

[8] = biological target: T6, human PD-1 with I126 mutated to alanine (human, UniProt Q15116 25-288, limits assumed); assay: alanine scanning, high-throughput flow cytometry
T6 construct: Alanine scanning mutant, expressed and analysed by high-throughput flow cytometry; the construct is not described further
Text: as §5

human PD-1 protein = biological target: T7, human PD-1 protein (human, UniProt Q15116 25-167, limits assumed); assay: SPR, Biacore 8K, antibody captured by anti-human IgG on CM5, human PD-1 as analyte
T7 construct: also called human PD-1 antigen
Method: Anti-human IgG antibody was immobilized on a CM5 chip (Cytiva) via amine coupling. […] Human PD-1 and running buffer at a concentration of 0-100 nM (0, 6.25, 12.5, 25, 50, 100 nM) were flowed onto the sensor chip at a flow rate of 30 μl/min for an association phase of 120 s, which was followed by a dissociation phase of 900 s. The chip was regenerated with glycine at pH 1.5 after each experiment. Association and dissociation curves were drawn using Cytiva evaluation software, and kinetics and affinity values were determined.

T7 sequence (Q15116 25-167 limits assumed): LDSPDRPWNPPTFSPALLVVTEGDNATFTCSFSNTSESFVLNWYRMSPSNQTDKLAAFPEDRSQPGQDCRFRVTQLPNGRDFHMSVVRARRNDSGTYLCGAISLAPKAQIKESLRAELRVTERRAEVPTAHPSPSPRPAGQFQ
T2 sequence (Q15116 25-288 limits assumed): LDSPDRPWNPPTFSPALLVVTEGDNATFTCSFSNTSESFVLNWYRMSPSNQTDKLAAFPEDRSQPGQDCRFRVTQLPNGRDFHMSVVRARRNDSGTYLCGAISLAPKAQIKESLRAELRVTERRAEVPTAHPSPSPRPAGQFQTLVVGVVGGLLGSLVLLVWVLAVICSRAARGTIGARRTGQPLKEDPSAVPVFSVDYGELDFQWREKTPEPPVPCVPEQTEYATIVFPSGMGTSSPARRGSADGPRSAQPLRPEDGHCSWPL
T6 sequence (Q15116 other isoform, or with tags, fused parts or gaps limits assumed, change not shown): as the sequence (Q15116 25-288 limits assumed) above, with I102A counted along it
Sequence of human CTLA-4 protein (P16410 36-161 limits assumed): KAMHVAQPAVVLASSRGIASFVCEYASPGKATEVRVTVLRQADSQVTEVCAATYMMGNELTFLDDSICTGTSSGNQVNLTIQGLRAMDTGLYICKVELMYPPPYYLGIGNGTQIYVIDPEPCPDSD
T5 sequence (Q15116 other isoform, or with tags, fused parts or gaps limits assumed, change not shown): as the sequence (Q15116 25-288 limits assumed) above, with P106A counted along it
T4 sequence (Q15116 other isoform, or with tags, fused parts or gaps limits assumed, change not shown): as the sequence (Q15116 25-288 limits assumed) above, with L104A counted along it

binding result (human ICOS protein): no binding
EC50 [1]: 0.0281 nM
fold improved binding activity compared to Keytruda and Opdivo [2]: ~5 fold
EC50 (read off the curve) [3]: ~0.01 µg/mL
EC50 (read off the curve) [4]: ~0.01 µg/mL
binding result (human CD28 protein): no binding
EC50 [5]: 0.0317 nM
binding result (human CTLA-4 protein): no binding
binding result (human BTLA protein): no binding
B1: hybridoma 1G1 antibody (antibody, V domains shown)
VH: EVQLQQSGAELVKPGASVKLSCKASGYTFTGYWMHWVKQRPGQGLEWIGMIHPNSDTTTYNEKFKNRATLTVDKSSGTAYMQLSSLTSEDSAVYYCTGTDQAAWFAFWGQGTLVTVSA
VL: DIVLTQTPLSLPVSLGDQASISCRSSQNIVHSNGDTYLEWYLQKPGQSPKLLIYKVSKRFSGVPDRFSGSGSGTDFTLKISRVEAEDLGVYYCFQGSHVPWTFGGGTKLEIK
notes: Mouse antibody from the hybridoma, used as culture supernatant or Protein G purified; IgG1 reverse primer used for VH); also called 1G1 hybridoma antibody; monoclonal cell (hybridoma) 1G1 antibody

binding activity relative to the wild-type antigen [6]: ≤ 50%
binding activity relative to the wild-type antigen [7]: ≤ 50%
binding activity relative to the wild-type antigen [8]: ≤ 50%
Kd (human PD-1 protein): 3.35 nM
koff (human PD-1 protein): 0.000749 s⁻¹
kon (human PD-1 protein): 223000 M⁻¹ s⁻¹
B2: chimeric 1G1 antibody (antibody, human IgG4 S228P, kappa, V domains shown)
VH: B1 VH
VL: DIVLTQTPLSLPVSLGDQASISCRSSQNIVHSNGDTYLEWYLQKPGQSPKLLIYKVSKRFSGVPDRFSGSGSGTDFTLKISRVEAEDLGVYYCFQGSHVPWTFGGGTKLEIKR
notes: signal peptide not part of the entries; also called 1G1 chimeric; 1G1-chimeric
